Consider two molecules from patent publication US20190322765A1 (Hoffmann-La Roche, published 2019).

The target of assay [1] is T1, human IL-2R βγ heterodimer, subunit-Fc knobs-into-holes fusion (human).
T1 construct: The entries may hold a leader peptide; also called Hu IL-2R βγ; human IL2-R β knob γ hole heterodimer
The assay can be described thus: SPR, receptor on CM5, 37°C, 1:1 fit.

Assay [2] concerns the target T2, murine IL-2R βγ heterodimer (β knob γ hole Fc fusion) (murine, UniProt P16297 27-240; P34902 23-263).
T2 construct: also called Mu IL-2R βγ; mouse IL-2R βγ heterodimer; not shown: Fc knob/hole part
T2 sequence (looked up) 1: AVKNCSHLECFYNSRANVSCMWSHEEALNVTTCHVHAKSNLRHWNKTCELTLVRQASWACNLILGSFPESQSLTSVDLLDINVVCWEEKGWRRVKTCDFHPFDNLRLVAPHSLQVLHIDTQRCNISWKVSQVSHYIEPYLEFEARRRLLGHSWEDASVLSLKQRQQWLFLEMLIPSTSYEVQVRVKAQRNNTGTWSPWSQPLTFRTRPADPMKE
T2 sequence (looked up) 2: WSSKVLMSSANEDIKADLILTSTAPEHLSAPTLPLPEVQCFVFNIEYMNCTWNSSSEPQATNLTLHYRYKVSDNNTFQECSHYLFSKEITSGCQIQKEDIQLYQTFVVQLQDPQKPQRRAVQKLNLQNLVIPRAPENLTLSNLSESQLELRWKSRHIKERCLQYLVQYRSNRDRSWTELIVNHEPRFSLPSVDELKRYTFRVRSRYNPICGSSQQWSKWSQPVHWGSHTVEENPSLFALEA
The assay can be described thus: SPR, receptor on CM5, 37°C, 1:1 fit. On the technique in general: In SPR one partner is held on a chip, and binding of the other changes the refractive index at the surface.

Assay [3] deals with T3, cynomolgus IL-2R βγ heterodimer (β knob γ hole Fc fusion) (cynomolgus).
T3 construct: also called Cyno IL-2R βγ
The assay can be described thus: SPR, receptor on CM5, 37°C, 1:1 fit.

Assay [4] addresses T4, murine IL-2R α-subunit, recombinant monomeric (murine, UniProt P01590 22-236, limits assumed).
T4 construct: also called Mu IL-2R α
T4 sequence (looked up): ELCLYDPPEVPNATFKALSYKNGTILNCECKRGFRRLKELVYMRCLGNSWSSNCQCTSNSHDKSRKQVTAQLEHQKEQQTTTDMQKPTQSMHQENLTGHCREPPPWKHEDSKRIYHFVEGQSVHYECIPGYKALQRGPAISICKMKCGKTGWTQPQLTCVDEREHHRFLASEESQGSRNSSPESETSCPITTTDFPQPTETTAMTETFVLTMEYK
As to the kind of experiment: SPR, receptor on CM5, 25°C.

For assay [5], the target named is T5, human IL-2R α-subunit, monomeric, with AcTev cleavage site and Avi His tag (human).
T5 construct: also called Hu IL-2R α; CD25
T5 chain: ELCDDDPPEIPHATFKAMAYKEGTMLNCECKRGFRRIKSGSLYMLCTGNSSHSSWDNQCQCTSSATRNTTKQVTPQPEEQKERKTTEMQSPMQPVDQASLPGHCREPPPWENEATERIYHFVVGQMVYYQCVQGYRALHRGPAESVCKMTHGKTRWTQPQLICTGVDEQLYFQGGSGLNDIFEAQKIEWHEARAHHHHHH
As to the kind of experiment: SPR, receptor on CM5, 25°C.

Assay [6] has as its target T6, cynomolgus IL-2R α-subunit, recombinant monomeric (cynomolgus, UniProt H6WS54 22-240).
T6 construct: also called Cyno IL-2R α
T6 sequence: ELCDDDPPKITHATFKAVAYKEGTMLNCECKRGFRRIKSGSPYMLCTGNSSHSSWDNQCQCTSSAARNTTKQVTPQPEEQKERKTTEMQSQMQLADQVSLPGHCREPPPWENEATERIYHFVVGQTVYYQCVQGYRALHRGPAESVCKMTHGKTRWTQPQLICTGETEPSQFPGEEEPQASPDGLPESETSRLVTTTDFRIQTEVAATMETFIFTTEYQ
The assay can be described thus: SPR, receptor on CM5, 25°C.

Assay [7] has as its target T7, human FAP expressed on stably transfected HEK293 cells (human, UniProt Q12884 1-760).
T7 construct: whole, on cells
The assay can be described thus: FACS on HEK 293-human FAP cells, median fluorescence against concentration.

Assay [8] deals with FAP on GM05389 fibroblasts. As to the kind of experiment: FACS on GM05389 fibroblasts, surface-bound construct detected with secondary antibody after the times shown (internalization analysis); concentration not shown.
Another assay has as its target T8, human FAP-His (human, UniProt Q12884 27-760).
T8 construct: also called Hu FAP; His-tagged human FAP; not shown: His tag
The assay can be described thus: SPR bridging: construct captured on immobilized human IL-2R βγ, human FAP analyte, 1:1 fit, 25°C.

Assay [9] addresses T9, human DPPIV on transfected HEK 293 cells (human, UniProt P27487 1-766).
T9 construct: whole, on cells; also called CD26
The assay can be described thus: FACS on HEK 293-human DPPIV cells, with HEK mock-transfected cells, cells only and sec. antibody as controls; concentration not shown.

For assay [10], the target named is T1, human IL-2R βγ heterodimer, subunit-Fc …. The assay can be described thus: SPR, receptor on CM5, 25°C, 1:1 fit.
For assay [11], the target named is T2, murine IL-2R βγ heterodimer (β knob γ …). The assay can be described thus: SPR, receptor on CM5, 25°C, 1:1 fit.
In assay [12] the target is T3, cynomolgus IL-2R βγ heterodimer (β knob …). The assay can be described thus: SPR, receptor on CM5, 25°C, 1:1 fit.
Assay [13] addresses T7, human FAP expressed on stably …. The assay can be described thus: FACS on FAP-expressing HEK cells.
The target of assay [14] is T1, human IL-2R βγ heterodimer, subunit-Fc …. The assay can be described thus: SPR, receptor on CM5, 25°C, kinetic.
In assay [15] the target is T5, human IL-2R α-subunit, monomeric, with …. The assay can be described thus: SPR, receptor on CM5, 25°C, kinetic.

Where “and” joins values, the source holds several entries; their conditions need not be identical. Equal values may be shown once.

B1: 29B11 Fab-IL-2 qm-Fab (other)
chain: EVQLLESGGGLVQPGGSLRLSCAASGFTFSSYAMSWVRQAPGKGLEWVSAIIGSGGITYYADSVKGRFTISRDNSKNTLYLQMNSLRAEDTAVYYCAKGWFGGFNYWGQGTLVTVSSASTKGPSVFPLAPSSKSTSGGTAALGCLVKDYFPEPVTVSWNSGALTSGVHTFPAVLQSSGLYSLSSVVTVPSSSLGTQTYICNVNHKPSNTKVDKKVEPKSCDSGGGGSGGGGSGGGGAPASSSTKKTQLQLEHLLLDLQMILNGINNYKNPKLTRMLTAKFAMPKKATELKHLQCLEEELKPLEEVLNGAQSKNFHLRPRDLISNINVIVLELKGSETTFMCEYADETATIVEFLNRWITFAQSIISTLTSGGGGSGGGGSGGGGEVQLLESGGGLVQPGGSLRLSCAASGFTFSSYAMSWVRQAPGKGLEWVSAIIGSGGITYYADSVKGRFTISRDNSKNTLYLQMNSLRAEDTAVYYCAKGWFGGFNYWGQGTLVTVSSASTKGPSVFPLAPSSKSTSGGTAALGCLVKDYFPEPVTVSWNSGALTSGVHTFPAVLQSSGLYSLSSVVTVPSSSLGTQTYICNVNHKPSNTKVDKKVEPKSCD
light: EIVLTQSPGTLSLSPGERATLSCRASQSVTSSYLAWYQQKPGQAPRLLINVGSRRATGIPDRFSGSGSGTDFTLTISRLEPEDFAVYYCQQGIMLPPTFGQGTKVEIKRTVAAPSVFIFPPSDEQLKSGTASVVCLLNNFYPREAKVQWKVDNALQSGNSQESVTEQDSKDSTYSLSSTLTLSKADYEKHKVYACEVTHQGLSSPVTKSFNRGEC
notes: Fab-IL-2-Fab immunoconjugate against FAP with quadruple mutant IL-2
As for B1, the Kd (usually the free concentration of one partner at which half of the binding sites on the other are occupied at equilibrium, for simple one-to-one binding) in assay [1] is 13.1 nM and 13 nM; in [2], 44 nM and 42 nM; in assay [3], 16.7 nM and 18.1 nM; in the assay with human FAP-His, 0.89 nM; in [10], 12 nM and 7.4 nM; in assay [11], 60 nM and 63 nM. Also, the Kd in assay [12] was 7.8 nM and 8.4 nM. In addition, the binding result in assay [4] is on record as “no binding (tested: 25 nM)”; in assay [5], “no binding (tested: 25 nM)”; in assay [6], “no binding (tested: 25 nM)”; in [8], “binds”; in [9] it was “no binding”. The 50% effective concentration (EC50 (read off the curve)) (as a rule, the midpoint of the concentration-response curve) in [7] was approximately 20 nM. For the same molecule, the concentration giving a half-maximal response (EC50) (as a rule, the concentration at which the effect is half-maximal) in assay [13] is 0.85 nM.

B2: MHLG1-KV9 Fab-IL-2 qm-Fab (other)
chain: EVQLVESGGGLVKPGGSLRLSCAASGFTFSNYWMNWVRQAPGKGLEWVAEIRLKSNNFGRYYAASVKGRFTISRDDSKNTLYLQMNSLKTEDTAVYYCTTYGNYVGHYFDHWGQGTTVTVSSASTKGPSVFPLAPSSKSTSGGTAALGCLVKDYFPEPVTVSWNSGALTSGVHTFPAVLQSSGLYSLSSVVTVPSSSLGTQTYICNVNHKPSNTKVDKKVEPKSCDSGGGGSGGGGSGGGGAPASSSTKKTQLQLEHLLLDLQMILNGINNYKNPKLTRMLTAKFAMPKKATELKHLQCLEEELKPLEEVLNGAQSKNFHLRPRDLISNINVIVLELKGSETTFMCEYADETATIVEFLNRWITFAQSIISTLTSGGGGSGGGGSGGGGEVQLVESGGGLVKPGGSLRLSCAASGFTFSNYWMNWVRQAPGKGLEWVAEIRLKSNNFGRYYAASVKGRFTISRDDSKNTLYLQMNSLKTEDTAVYYCTTYGNYVGHYFDHWGQGTTVTVSSASTKGPSVFPLAPSSKSTSGGTAALGCLVKDYFPEPVTVSWNSGALTSGVHTFPAVLQSSGLYSLSSVVTVPSSSLGTQTYICNVNHKPSNTKVDKKVEPKSCD
light: DIQLTQSPSFLSASVGDRVTITCKASQNVDTNVAWYQQKPGQAPRPLIYSASYRYTGVPSRFSGSGSGTEFTLTISSLQPEDFATYYCQQYNSYPLTFGGGTKVEIKRTVAAPSVFIFPPSDEQLKSGTASVVCLLNNFYPREAKVQWKVDNALQSGNSQESVTEQDSKDSTYSLSSTLTLSKADYEKHKVYACEVTHQGLSSPVTKSFNRGEC
notes: Fab-IL-2-Fab immunoconjugate against MCSP with quadruple mutant IL-2; also called MHLG1 KV9 MCSP-targeted Fab-IL2QM-Fab
As to B2, the Kd in assay [14] was 7.3 nM and 10.7 nM. In assay [15], the binding result is listed as “no binding (tested: 33.3 nM)”.
